# Laboratory results published in PMC3877365.
# Legend:
# [1] = target: BCRZFP-orfA fusion protein (walleye dermal sarcoma virus orfA protein fused to the BCR-ABL zinc finger protein) (walleye dermal sarcoma virus (WDSV)); experiment: two-hybrid; ZFN-Y2H, LacZ reporter: relative β-galactosidase activity (ONPG assay) of colonies in liquid medium, wild-type Gal4 (pADH-Gal4) set to 100%
# [2] = target: BCRZFP-orfA fusion protein (walleye dermal sarcoma virus orfA protein fused to the BCR-ABL zinc finger protein) (walleye dermal sarcoma virus (WDSV)); experiment: two-hybrid; ZFN-Y2H: bait fused to BCR-ZFP, prey fused to FokI, co-transformed into AH109 carrying the reporter pADH-Gal4-BS; growth on SD plates lacking histidine and adenine, 30°C, at least three days; colonies counted against non-selective plates; spotting of dilutions
# Sequence of FokI-E2F5 fusion protein (human E2F5 fused to the FokI nuclease domain) (natural protein) (Q15329 whole entry, the tested form may be a part): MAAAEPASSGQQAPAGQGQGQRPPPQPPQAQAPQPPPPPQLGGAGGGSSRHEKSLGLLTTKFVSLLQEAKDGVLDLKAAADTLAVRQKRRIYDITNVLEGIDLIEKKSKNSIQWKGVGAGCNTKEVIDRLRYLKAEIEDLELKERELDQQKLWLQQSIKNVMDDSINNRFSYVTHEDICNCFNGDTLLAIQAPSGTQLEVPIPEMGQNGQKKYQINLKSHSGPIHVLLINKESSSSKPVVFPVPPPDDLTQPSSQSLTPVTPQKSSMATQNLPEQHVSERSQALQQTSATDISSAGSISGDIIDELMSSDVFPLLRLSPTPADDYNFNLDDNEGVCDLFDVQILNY
# Sequence of BCRZFP-orfA fusion protein (walleye dermal sarcoma virus orfA protein fused to the BCR-ABL zinc finger protein) (walleye dermal sarcoma virus (WDSV)) (Q88939 whole entry, the tested form may be a part): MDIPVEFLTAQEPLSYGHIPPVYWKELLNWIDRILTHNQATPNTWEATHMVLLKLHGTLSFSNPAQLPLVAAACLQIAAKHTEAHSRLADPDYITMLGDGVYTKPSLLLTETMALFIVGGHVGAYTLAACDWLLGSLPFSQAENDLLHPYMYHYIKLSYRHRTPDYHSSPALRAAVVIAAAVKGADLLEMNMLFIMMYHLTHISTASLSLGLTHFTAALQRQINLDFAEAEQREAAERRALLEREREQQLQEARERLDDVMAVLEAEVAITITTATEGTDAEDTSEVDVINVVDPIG
substance,measurement,setting,value
FokI-E2F5 fusion protein (human E2F5 fused to the FokI nuclease domain) (natural protein),relative β-galactosidase activity,[1],84.3%
same,percent of transformants surviving on selective medium,[2],22.5%
